The results in this text go back to patent EP2488198B1 (Rutgers, the State University of New Jersey, dated 2016).

The assay has as its target T1, leukocyte function antigen-1 (LFA-1), composed of CD11a and CD18, on the surface of white blood cells (human, UniProt P20701 26-1170; P05107 23-769).
T1 construct: whole, on cells; also called CD11a/CD18; wild type form of the receptor
The assay is described as follows: flow cytometry, THP-1 cells mixed with LtxA-FITC for 30 min at 0 C. In general terms: In flow cytometry, cells or beads pass a laser one at a time.

T1 sequence (P20701 26-1170, chain 1 of 2): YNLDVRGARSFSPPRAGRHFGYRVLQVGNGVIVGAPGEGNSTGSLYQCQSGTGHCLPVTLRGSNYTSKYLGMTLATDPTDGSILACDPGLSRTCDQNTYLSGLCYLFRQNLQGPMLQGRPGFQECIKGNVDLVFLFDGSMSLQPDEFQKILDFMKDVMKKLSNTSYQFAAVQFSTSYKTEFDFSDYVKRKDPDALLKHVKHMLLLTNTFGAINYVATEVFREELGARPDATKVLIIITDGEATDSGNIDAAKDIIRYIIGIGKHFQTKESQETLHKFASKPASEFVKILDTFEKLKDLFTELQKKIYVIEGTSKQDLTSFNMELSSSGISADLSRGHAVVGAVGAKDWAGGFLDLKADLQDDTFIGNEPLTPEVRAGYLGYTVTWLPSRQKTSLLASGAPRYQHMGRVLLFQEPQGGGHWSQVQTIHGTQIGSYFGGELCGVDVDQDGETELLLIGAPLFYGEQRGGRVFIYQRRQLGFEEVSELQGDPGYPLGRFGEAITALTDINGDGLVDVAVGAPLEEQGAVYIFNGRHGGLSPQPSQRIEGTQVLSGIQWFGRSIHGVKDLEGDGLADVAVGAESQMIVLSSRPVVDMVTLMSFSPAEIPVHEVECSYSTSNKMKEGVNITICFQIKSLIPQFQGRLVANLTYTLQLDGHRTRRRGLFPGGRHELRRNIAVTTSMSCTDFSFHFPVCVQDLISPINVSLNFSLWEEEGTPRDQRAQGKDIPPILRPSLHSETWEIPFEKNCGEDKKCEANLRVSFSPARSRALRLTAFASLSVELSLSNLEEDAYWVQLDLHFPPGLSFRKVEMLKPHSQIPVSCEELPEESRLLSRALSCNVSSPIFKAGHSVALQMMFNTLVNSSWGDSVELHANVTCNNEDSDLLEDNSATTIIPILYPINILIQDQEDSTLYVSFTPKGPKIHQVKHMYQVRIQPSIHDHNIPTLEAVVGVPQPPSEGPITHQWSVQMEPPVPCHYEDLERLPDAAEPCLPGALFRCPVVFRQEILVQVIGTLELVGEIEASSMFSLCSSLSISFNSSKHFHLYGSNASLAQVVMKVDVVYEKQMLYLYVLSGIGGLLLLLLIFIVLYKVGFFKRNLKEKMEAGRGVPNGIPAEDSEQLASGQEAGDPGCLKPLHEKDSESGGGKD
T1 sequence (P05107 23-769, chain 2 of 2): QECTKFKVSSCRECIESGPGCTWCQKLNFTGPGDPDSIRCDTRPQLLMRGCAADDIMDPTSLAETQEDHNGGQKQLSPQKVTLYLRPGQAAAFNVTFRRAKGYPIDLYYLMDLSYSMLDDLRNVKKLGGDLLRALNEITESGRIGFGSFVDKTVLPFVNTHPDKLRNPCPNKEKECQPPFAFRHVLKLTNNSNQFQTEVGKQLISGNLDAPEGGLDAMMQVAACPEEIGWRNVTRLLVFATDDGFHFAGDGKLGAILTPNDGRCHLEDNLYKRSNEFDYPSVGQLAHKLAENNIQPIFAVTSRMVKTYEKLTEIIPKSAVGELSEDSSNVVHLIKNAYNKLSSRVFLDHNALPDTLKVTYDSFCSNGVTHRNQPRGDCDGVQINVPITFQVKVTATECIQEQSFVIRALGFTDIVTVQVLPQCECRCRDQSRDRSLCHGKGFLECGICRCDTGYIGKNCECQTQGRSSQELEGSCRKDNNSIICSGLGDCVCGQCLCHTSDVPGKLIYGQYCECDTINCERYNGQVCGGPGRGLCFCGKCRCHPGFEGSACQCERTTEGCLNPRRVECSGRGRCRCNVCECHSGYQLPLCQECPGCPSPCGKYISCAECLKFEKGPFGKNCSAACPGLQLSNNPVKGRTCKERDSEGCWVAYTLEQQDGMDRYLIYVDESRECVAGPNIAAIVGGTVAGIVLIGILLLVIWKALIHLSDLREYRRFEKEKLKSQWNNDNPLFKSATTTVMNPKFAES

B1: LtxA covalently labeled with fluorescein isothiocyanate (LtxA-FITC) (other)
chain: MATTSLLNTKQQAAQFANSVADRAKENIDAAKEQLQKALDKLGKTGKKLTLYIKNYKKGNGLTALIKAAQKLGIEVYHEGKDGPALTNGILNTGKKLLGLTERGLTLFAPELDKWIQGNKHLSNSVGSTGNLTKAIDKVQSVLGTLQAFLNTAFSGMDLDALIKARQNGKNVTDVQLAKASLNLINELIGTISSITNNVDTFSKQLNKLGEALGQVKHFGSFGDKLKNLPKLGNLGKGLGALSGVLSAISAALLLANKDADTATKAAAAAELTNKVLGNIGKAITQYLIAQRAAAGLSTTGPVAGLIASVVSLAISPLSFLGIAKQFDRARMLEEYSKRFKKFGYNGDSLLGQFYKNTGIADAAITTINTVLSAIAAGVGAASAGSLVGAPIGLLVSAITSLISGILDASKQAVFEHIANQLADKIKAWENKYGKNYFENGYDARHSAFLEDSLKLFNELREKYKTENILSITQQGWDQRIGELAGITRNGDRIQSGKAYVDYLKKGEELAKHSDKFTKQILDPIKGNIDLSGIKGSTTLTFLNPLLTAGKEERKTRQSGKYEFITELKVKGRTDWKVKGVPNSNGVYDFSNLIQHAVTRDNKVLEARLIANLGAKDDYVFVGSGSTIVNAGDGYDVVDYSKGRTGALTIDGRNATKAGQYKVERDLSGTQVLQETVSKQETKRGKVTDLLEYRNYKLDYYYTNKGFKAHDELNSVEEIIGSTLRDKFYGSKFNDVFHGHDGDDLIYGYDGDDRLYGDNGNDEIHGGQGNDKLYGGAGNDRLFGEYGNNYLDGGEGDDHLEGGNGSDILRGGSGNDKLFGNQGDDLLDGGEGDDQLAGGEGNDIYVYRKEYGHHTITEHSGDKDKLSLANINLKDVSFERNGNDLLLKTNNRTAVTFKGWFSKPNSSAGLDEYQRKLLEYAPEKDRARLKRQFELQRGKVDKSLNNKVEEIIGKDGERITSQDIDNLFDKSGNKKTISPQELAGLIKNKGKSSSLMSSSRSSSMLTQKSGLSNDISRIISATSGFGSSGKALSASPLQTNNNFNSYANSLATTAA
modifications: covalently labeled with fluorescein isothiocyanate (FITC); sites not stated
notes: also called leukotoxin-FITC
Regarding B1, the binding result is recorded as “binds”.
